Where a chain is given by its changes, count along the chain named. Where two headings read alike, the source gives them in different places.
B1: ch1808 (antibody, human IgG4 S228P, kappa, F234A L235A, V domains shown)
VH: QVQLQQSGAELARPGASVKLSCKASGDTFTTNGISWVKQRIGQGLEWIGEIYPRSGNTYYNENFKGKATLTADKSSTTAYMELRRLTSEDSAVYFCARSITSVIGADYFDYWGQGTTLTVSS
VL: DIQMTQTTSSLSASLGDRVTISCRASQDISNYLNWYQKKPDGTVKLLIYYSSTLHSGVPSRFSGSGSGTDYSLTISNLEQEDIATYFCQQGNTFPWTFGGGTKLEIKR
notes: IgG4-AA / kappa chimeric antibody
B2: ch1805 (antibody, human IgG4 S228P, kappa, F234A L235A, V domains shown)
VH: EVQLQQSGPELVKPGASVKIPCKTSGYTFTDYNMDWVKQSHGRSLEWIGSIDPDNGGTIYNQKFKGKATLTVDKSSSTAYMELRSLTSEDTAVYYCTRDYYGSSSWFAYWGQGTLVTVSA
VL: DVVMTQSPATLSVTPGDRVSLSCRASQSISDYLHWYQQKSHESPRLLIKYASQSISGIPSRFSGSGSGSDFTLSINSVEPEDVGVYYCQNGHSFPYTFGGGTKLEIKR
notes: IgG4-AA / kappa chimeric antibody; also called chimeric antibody of clone 1805
B3: hu1803-9 (antibody, human IgG4 S228P, kappa, F234A L235A, V domains shown)
VH: EVQLVQSGAEVKKPGASVKVSCKASGYTFTDYWIEWVRQAPGQGLEWMGEILPGSTYTNYNEKFKGRVTMTRDTSTSTVYMELSSLRSEDTAVYYCARGLSTLMAVDYFDYWGQGTTVTVSS
VL: DIQMTQSPSSLSASVGDRVTITCRASQDISNYLNWYQQKPGKAVKLLIYYSSTLHSGVPSRFSGSGSGTDYTLTISSLQPEDFATYYCQQTNIFPWTFGGGTKVEIKR
notes: IgG4-AA / kappa humanized antibody; also called hu1803_VH.1 + hu1803_VL.1B; GCGR monoclonal antibody
B4: hu1810-12 (antibody, human IgG4 S228P, kappa, F234A L235A, V domains shown)
VH: QVQLVQSGAEVKKPGSSVKVSCKASGGTFSNYAISWVKQAPGQGLEWIGEIYPTSGNTYYNEKFKGKATLTADRSTSTMYMELSSLRSEDTAVYYCASGVITTVVSTDYFDYWGQGTLVTVSS
VL: B3 VL with Q27L, Q38L, S51T, P59S, D70E, T91G, I93M, F94V, W96Y
notes: IgG4-AA / kappa humanized antibody; also called hu1810_VH.1C + hu1810_VL.1B

How the values were obtained:
[1] = molecular target: T1, human GCGR (full-length glucagon receptor of 477 amino acids) (human, UniProt P47871 26-477); test: competitive cell ELISA on GCGR-overexpressing CHO cells, biotin-labeled against unlabeled antibody; competitor hu1810-12
T1 construct: Expressed from a full-length plasmid on CHO / CHO-K1 cells; also called hGCGR
T1 sequence (P47871 26-477 limits assumed): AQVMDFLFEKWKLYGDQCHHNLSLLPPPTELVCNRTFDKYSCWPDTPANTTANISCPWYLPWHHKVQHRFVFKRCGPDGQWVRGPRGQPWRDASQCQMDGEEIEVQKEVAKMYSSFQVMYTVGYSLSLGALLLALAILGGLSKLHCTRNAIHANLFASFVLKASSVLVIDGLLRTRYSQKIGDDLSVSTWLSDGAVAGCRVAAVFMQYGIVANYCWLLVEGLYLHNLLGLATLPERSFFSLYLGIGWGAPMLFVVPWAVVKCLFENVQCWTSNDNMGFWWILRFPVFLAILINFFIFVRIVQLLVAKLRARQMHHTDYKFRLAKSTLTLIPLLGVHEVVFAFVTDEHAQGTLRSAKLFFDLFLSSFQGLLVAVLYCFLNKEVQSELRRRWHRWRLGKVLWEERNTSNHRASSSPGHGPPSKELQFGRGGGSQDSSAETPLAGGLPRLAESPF
Source text: (§1) The GCGR epitopes bound by GCGR antibodies were classified by ELISA assay, in which the competitive binding of the biotin-labeled antibodies with different concentrations of the standard antibody to GCGR-overexpressing CHO cells was detected. The method for preparing the cell plate was the same as that of Test Example 1. The following specific procedures are as follows: The antibody was labelled according to the biotin labeling kit instructions (Dojindo
(§2) Molecular Technologies, Inc. LK03). The unlabeled test antibody was diluted to a range of concentrations with sample dilution solution in a 96-well cell plate, 50 μl/well, and incubated at 37° C. for 2 hours. After the incubation was finished, the plate was washed 3 times with PBST, 50 μl/well of biotin-labeled antibody diluted with sample dilution solution was added, at a concentration of 0.1 μg/ml, incubated at 37° C. for 2 hours, the plate was washed 3 times with PBST, and HRP-labeled goat-anti-human secondary antibody (JacksoW ImmuWo Research, Cat Wo. 109-035-003) was added, and incubated at 37° C. for 1 hour. The plate was washed 3 times with PBST, 50 μl/well of TMB chromogenic substrate (KPL, Cat No. 52-00-03) was added, incubated at room temperature for 10 min, and 50 μl/well of 1M H₂SO₄ was added to stop the reaction. The absorbance value was read by a microplate reader (Thermo scientific Multiskan MK3) at a wavelength of 450 nm, and the data was analyzed with GraphPad Prism 5.

[2] = molecular target: T1, human GCGR (full-length glucagon …); test: competitive cell ELISA on GCGR-overexpressing CHO cells, biotin-labeled against unlabeled antibody; competitor hu1803-9
Source text: as §1, §2

[3] = molecular target: T1, human GCGR (full-length glucagon …); test: competitive cell ELISA on GCGR-overexpressing CHO cells, biotin-labeled against unlabeled antibody; competitor ch1808
Source text: as §1, §2

[4] = molecular target: T1, human GCGR (full-length glucagon …); test: cell ELISA on fixed CHO cells overexpressing GCGR
Description: (§3) The expression levels of GCGR were detected after two weeks of pressure screening, After the GCGR-overexpressing cells were fixed to the bottom of 96-well plate, the antibodies were added and the signal strength was used to determine the binding activity of the antibody to GCGR overexpressing CHO cells. The binding abilities of the antibody to the three species of GCGRs were detected with the same binding assay. As an example, the binding of the GCGR antibodies to human GCGR was detected by an assay specifically described as follows:
(§4) The cells were seeded in a 96-well plate at a density of 0.9-1.0×10⁶/ml, 100 μl/well and cultured overnight. The supernatant was discarded, the plate was washed three times with PBS, 100 μl/well of cell immune fixed solution (Beyotime, Cat No. P0098) was added and fixed for an hour at room temperature, and washed four times with PBS. The liquid was discarded, 200 μl/well blocking solution (5% skim milk (BD skim milk, Cat Wo. 232100) diluted with PBS) was added, and incubated in an incubator at 37° C. for 3 hours for blocking. After the blocking was finished, the blocking solution was discarded, the plate was washed 3 times with PBST buffer (PBS comprising 0.05% tweenW-20, pH7.4), 50 μl/well of various concentrations of each of the test antibodies (antibodies purified from hybridoma, chimeric antibodies or humanized antibodies) diluted with sample dilution solution were added, and incubated in an incubator at 37° C. for 2 hours. After the incubation was finished, the plate was washed 3 times with PBST, 50 μl/well of HRP-labeled goat anti-mouse secondary antibody (JacksoW ImmuWo Research, Cat No. 115-035-003) or goat anti-human secondary antibody (JacksoW ImmuWo Research, Cat Wo. 109-035-003) diluted with sample dilution solution was added, and incubated at 37° C. for 1 hour. The plate was washed 3 times with PBST, 50 μl/well of TMB chromogenic substrate (KPL, Cat Wo. 52-00-03) was added, incubated at room temperature for 10 min, and 50 μl/well of 1M H₂SO4 was added to stop the reaction. The absorbance value was read by a microplate reader (Thermo scientific Multiskan MK3) at a wavelength of 450 nm, and the data was analyzed with GraphPad Prism 5. The binding of GCGR chimeric antibodies to GCGR-overepressing CHO cells was calculated as EC50 value.

[5] = molecular target: T2, Cynomolgus monkey GCGR (cynomolgus monkey); test: cell ELISA on fixed CHO cells overexpressing GCGR
T2 construct: whole, on cells; also called cynomolgus GCGR
Description: as §3, §4

[6] = molecular target: T3, Mouse GCGR (mouse, UniProt Q61606 27-485); test: cell ELISA on fixed CHO cells overexpressing GCGR
T3 construct: whole, on cells; also called mouse glucagon receptor
T3 sequence (Q61606 27-485): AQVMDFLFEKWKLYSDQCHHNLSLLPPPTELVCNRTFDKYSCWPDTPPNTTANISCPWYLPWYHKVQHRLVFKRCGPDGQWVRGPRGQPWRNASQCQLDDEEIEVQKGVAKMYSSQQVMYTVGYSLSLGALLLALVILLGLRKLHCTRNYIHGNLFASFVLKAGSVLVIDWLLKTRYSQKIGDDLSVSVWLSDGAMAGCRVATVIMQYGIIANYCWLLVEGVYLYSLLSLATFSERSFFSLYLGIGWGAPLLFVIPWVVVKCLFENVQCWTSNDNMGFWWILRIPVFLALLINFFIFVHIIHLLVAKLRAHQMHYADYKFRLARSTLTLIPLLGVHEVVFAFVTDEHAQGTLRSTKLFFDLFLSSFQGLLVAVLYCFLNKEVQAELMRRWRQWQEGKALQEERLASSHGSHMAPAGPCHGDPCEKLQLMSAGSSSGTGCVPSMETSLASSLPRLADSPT
Description: as §3, §4

[7] = molecular target: T1, human GCGR (full-length glucagon …); test: cell-based or functional assay
[8] = molecular target: T3, Mouse GCGR; test: cell-based or functional assay
[9] = molecular target: T1, human GCGR (full-length glucagon …); test: cell-based or functional assay; remark: listed apart in the source
[10] = molecular target: T1, human GCGR (full-length glucagon …); test: cell-based or functional assay; remark: listed apart in the source
[11] = molecular target: T2, Cynomolgus monkey GCGR; test: cell-based or functional assay
[12] = molecular target: T3, Mouse GCGR; test: cell-based or functional assay; remark: listed apart in the source

| Binder | competition efficiency IC % [1] [%] | competition efficiency IC % [2] [%] | competition efficiency IC % [3] [%] | EC50 [4] [nM] | EC50 [5] [nM] | EC50 [6] [nM] | IC50 [7] [nM] | Imax [7] [%] | IC50 [8] [nM] | Imax (%) [8] [%] | IC50 [9] [nM] | Imax (%) [9] [%] | IC50 [10] [nM] | Imax [10] [%] | IC50 [11] [nM] | Imax (%) [11] [%] | IC50 [12] [nM] | Imax (%) [12] [%] |
| --- | --- | --- | --- | --- | --- | --- | --- | --- | --- | --- | --- | --- | --- | --- | --- | --- | --- | --- |
| B1 | 54.3 | 46.6 | 100 | 0.677 | 0.536 | 1.02 | 105 | 98 | 26.6 | 100 |  |  |  |  |  |  |  |  |
| B2 | 100 | 100 | 100 | 0.297 | 0.358 | 0.343 | 95 | 91 | 18 | 100 |  |  |  |  |  |  |  |  |
| B3 | 100 | 100 | 100 |  |  |  |  |  |  |  | 54 | 100 | 78.4 | 100 | 220 | 100 | 11.2 | 100 |
| B4 | 100 | 100 | 100 |  |  |  |  |  |  |  |  |  | 75.9 | 99.7 | 886 | 99 | 17.5 | 97 |

From US20220153853A1 (JIANGSU HENGRUI MEDICINE, published 2022)
